Substitutions are numbered along the chain they refer to. Names may count otherwise.

Sequences and labels used below:
B1: H183/L072 VL Q24M (antibody, name in Kabat numbering, V domains shown)
VH: QVQLVESGGGLVQPGRSLRLSCAASGFTFSNAWMHWVRQAPGKGLEWVAQIKDKGNAYAAYYAPSVKGRFTISRDDSKNSIYLQMNSLKTEDTAVYYCHYVHYASASTVLPAFGVDAWGQGTTVTVSS
VL: DIVMTQSPLSLPVTPGEPASISCMASQELVHMNRNTYLHWYQQKPGQAPRLLIYKVSNRFPGVPDRFSGSGSGTDFTLKISRVEAEDVGVYYCAQGTSVPFTFGQGTKLEIK
B2: H183/L072 VL Q27R (antibody, name in Kabat numbering, V domains shown)
VH: B1 VH
VL: B1 VL with M24Q, Q27R
B3: H183/L072 VL Q27L (antibody, name in Kabat numbering, V domains shown)
VH: B1 VH
VL: B1 VL with M24Q, Q27L
B4: H183/L072 VL R29L (antibody, name in Kabat numbering, V domains shown)
VH: B1 VH
VL: B1 VL with M24Q, R34L
B5: H183/L072 VL Q27W (antibody, name in Kabat numbering, V domains shown)
VH: B1 VH
VL: B1 VL with M24Q, Q27W
B6: H183/L072 VL Q90T (antibody, name in Kabat numbering, V domains shown)
VH: B1 VH
VL: B1 VL with M24Q, Q95T
B7: H183/L072 VL Q27K (antibody, name in Kabat numbering, V domains shown)
VH: B1 VH
VL: B1 VL with M24Q, Q27K
B8: H183/L072 VL Q24S (antibody, name in Kabat numbering, V domains shown)
VH: B1 VH
VL: B1 VL with M24S
B9: H183/L072 VL R29A (antibody, name in Kabat numbering, V domains shown)
VH: B1 VH
VL: B1 VL with M24Q, R34A
B10: H183/L072 VL R29E (antibody, name in Kabat numbering, V domains shown)
VH: B1 VH
VL: B1 VL with M24Q, R34E
B11: H183/L072 VL Q27E (antibody, name in Kabat numbering, V domains shown)
VH: B1 VH
VL: B1 VL with M24Q, Q27E
B12: H183/L072 VL R29K (antibody, name in Kabat numbering, V domains shown)
VH: B1 VH
VL: B1 VL with M24Q, R34K
B13: H183/L072 VL R29N (antibody, name in Kabat numbering, V domains shown)
VH: B1 VH
VL: B1 VL with M24Q, R34N
B14: H183/L072 VL Q90H (antibody, name in Kabat numbering, V domains shown)
VH: B1 VH
VL: B1 VL with M24Q, Q95H
B15: H183/L072 VL Q27M (antibody, name in Kabat numbering, V domains shown)
VH: B1 VH
VL: B1 VL with M24Q, Q27M
B16: H183/L072 VL Q27N (antibody, name in Kabat numbering, V domains shown)
VH: B1 VH
VL: B1 VL with M24Q, Q27N
B17: H183/L072 VL Q27I (antibody, name in Kabat numbering, V domains shown)
VH: B1 VH
VL: B1 VL with M24Q, Q27I
B18: H183/L072 VL Q27G (antibody, name in Kabat numbering, V domains shown)
VH: B1 VH
VL: B1 VL with M24Q, Q27G
B19: H183/L072 VL Q90K (antibody, name in Kabat numbering, V domains shown)
VH: B1 VH
VL: B1 VL with M24Q, Q95K
B20: H183/L072 VL R29I (antibody, name in Kabat numbering, V domains shown)
VH: B1 VH
VL: B1 VL with M24Q, R34I
B21: H183/L072 VL R29G (antibody, name in Kabat numbering, V domains shown)
VH: B1 VH
VL: B1 VL with M24Q, R34G
B22: H183/L072 VL Q24Y (antibody, name in Kabat numbering, V domains shown)
VH: B1 VH
VL: B1 VL with M24Y
B23: H183/L072 VL R29H (antibody, name in Kabat numbering, V domains shown)
VH: B1 VH
VL: B1 VL with M24Q, R34H
B24: H183/L072 VL Q27A (antibody, name in Kabat numbering, V domains shown)
VH: B1 VH
VL: B1 VL with M24Q, Q27A
B25: H183/L072 VL Q24N (antibody, name in Kabat numbering, V domains shown)
VH: B1 VH
VL: B1 VL with M24N
B26: H183/L072 VL Q27S (antibody, name in Kabat numbering, V domains shown)
VH: B1 VH
VL: B1 VL with M24Q, Q27S
B27: H183/L072 VL Q24V (antibody, name in Kabat numbering, V domains shown)
VH: B1 VH
VL: B1 VL with M24V
B28: H183/L072 VL Q90D (antibody, name in Kabat numbering, V domains shown)
VH: B1 VH
VL: B1 VL with M24Q, Q95D
B29: H183/L072 VL Q27H (antibody, name in Kabat numbering, V domains shown)
VH: B1 VH
VL: B1 VL with M24Q, Q27H
B30: H183/L072 VL Q90S (antibody, name in Kabat numbering, V domains shown)
VH: B1 VH
VL: B1 VL with M24Q, Q95S
B31: H183/L072 VL Q24W (antibody, name in Kabat numbering, V domains shown)
VH: B1 VH
VL: B1 VL with M24W
B32: H183/L072 VL Q27T (antibody, name in Kabat numbering, V domains shown)
VH: B1 VH
VL: B1 VL with M24Q, Q27T
B33: H183/L072 VL Q27D (antibody, name in Kabat numbering, V domains shown)
VH: B1 VH
VL: B1 VL with M24Q, Q27D
B34: H183/L072 VL Q24T (antibody, name in Kabat numbering, V domains shown)
VH: B1 VH
VL: B1 VL with M24T
B35: H183/L072 VL R29D (antibody, name in Kabat numbering, V domains shown)
VH: B1 VH
VL: B1 VL with M24Q, R34D
B36: H183/L072 VL Q27V (antibody, name in Kabat numbering, V domains shown)
VH: B1 VH
VL: B1 VL with M24Q, Q27V
B37: H183/L072 VL Q27Y (antibody, name in Kabat numbering, V domains shown)
VH: B1 VH
VL: B1 VL with M24Q, Q27Y
B38: H183/L072 VL R29M (antibody, name in Kabat numbering, V domains shown)
VH: B1 VH
VL: B1 VL with M24Q, R34M
B39: H183/L072 VL R29F (antibody, name in Kabat numbering, V domains shown)
VH: B1 VH
VL: B1 VL with M24Q, R34F
B40: H183/L072 VL Q90E (antibody, name in Kabat numbering, V domains shown)
VH: B1 VH
VL: B1 VL with M24Q, Q95E
B41: H183/L072 VL Q24R (antibody, name in Kabat numbering, V domains shown)
VH: B1 VH
VL: B1 VL with M24R
B42: H183/L072 VL Q27F (antibody, name in Kabat numbering, V domains shown)
VH: B1 VH
VL: B1 VL with M24Q, Q27F

The experiment deals with T1, Human CD3eg linker (human).
T1 construct: Single-chain construct; also called recombinant human CD3
T1 chain: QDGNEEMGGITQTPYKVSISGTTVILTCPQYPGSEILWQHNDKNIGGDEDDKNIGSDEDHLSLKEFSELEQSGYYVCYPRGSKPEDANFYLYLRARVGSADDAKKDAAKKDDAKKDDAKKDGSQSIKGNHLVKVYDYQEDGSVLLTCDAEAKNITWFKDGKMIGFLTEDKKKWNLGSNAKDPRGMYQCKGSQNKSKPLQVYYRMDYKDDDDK
The experiment in a line: SPR; fold vs parent H183/L072. Background: In SPR one partner is held on a chip, and binding of the other changes the refractive index at the surface.
For B1, the “fold change of affinity” value was found to be 1.1 fold.
As for B2, the “fold change of affinity” value was found to be 1 fold.
In the case of B3, the “fold change of affinity” value turned out to be 1 fold.
As for B4, the “fold change of affinity” value turned out to be 0.8 fold.
As for B5, the “fold change of affinity” value was determined as 0.7 fold.
With B6, the “fold change of affinity” value came out at 0 fold.
On to B7, for which the “fold change of affinity” value is 0.8 fold.
Turning to B8, the “fold change of affinity” value was 1.1 fold.
On to B9, for which the “fold change of affinity” value turned out to be 0.6 fold.
B10: the “fold change of affinity” value was 0.3 fold.
The figure for B11 is 1.1 fold.
As to B12, the “fold change of affinity” value was determined as 1.1 fold.
The figure for B13 is 0.3 fold; for B14 it is 0.1 fold.
With B15, the “fold change of affinity” value came out at 1.2 fold.
In the case of B16, the “fold change of affinity” value stood at 1 fold.
For the molecule B17, the “fold change of affinity” value came to 0.8 fold.
B18: the “fold change of affinity” value was 1 fold.
Take B19: the “fold change of affinity” value is 0 fold.
As to B20, the “fold change of affinity” value was 0.2 fold.
As for B21, the figure is 1.2 fold.
The figure for B22 is 1 fold; for B23 it is 0.8 fold; for B24 it is 1.2 fold.
The figure for B25 is 1.1 fold; for B26 it is 1.1 fold.
With B27, the “fold change of affinity” value was found to be 1.2 fold.
Regarding B28, the “fold change of affinity” value was 0 fold.
The figure for B29 is 1.2 fold.
For the molecule B30, the “fold change of affinity” value worked out at 0 fold.
For the molecule B31, the “fold change of affinity” value amounted to 1.1 fold.
Consider B32, for which the “fold change of affinity” value came to 1 fold.
In the case of B33, the “fold change of affinity” value was found to be 1.1 fold.
As for B34, the figure is 1.1 fold.
On to B35, for which the “fold change of affinity” value turned out to be 0.3 fold.
Take B36: the “fold change of affinity” value came out at 0.9 fold.
As to B37, the “fold change of affinity” value came out at 0.9 fold.
As for B38, the “fold change of affinity” value was 0.7 fold.
Regarding B39, the “fold change of affinity” value was found to be 0.6 fold.
B40: the “fold change of affinity” value turned out to be 0.4 fold.
Take B41: the “fold change of affinity” value was determined as 1 fold.
Turning to B42, the “fold change of affinity” value was 0.9 fold.

For the origin of these results see patent publication US20210388087A1 (Chugai, published 2021).
